This passage reports Kd and EC50 results from US20240238439A1, “HER3-BINDING ANTIBODY-DRUG CONJUGATE” (priority 2023, published 2024).

In one assay the target is FCɣR IA (CD64) (human) (UniProt P12314). As to the kind of experiment: SPR. (In general: Surface plasmon resonance follows binding to a sensor surface in real time, without labels.)
The target in another assay is FCɣR IIA (CD32a) (human) (UniProt P12318). In words: SPR.
Assay [1] addresses HER3 on the surface of human cancer cell lines (HCT116, DU145, H358, T-47D, OVCAR8) (UniProt P21860). As to the kind of experiment: flow cytometry; OVCAR8 cells. For orientation: A flow cytometer gives signals particle by particle.
For assay [2] the target is unchanged. As to the kind of experiment: flow cytometry; H358 cells.
Assay [3] shares this target. In words: flow cytometry; DU145 cells.
Assay [4] has the same target. In words: flow cytometry; HCT116 cells.

FCɣR IA (CD64) (human), sequence (P12314 16-288): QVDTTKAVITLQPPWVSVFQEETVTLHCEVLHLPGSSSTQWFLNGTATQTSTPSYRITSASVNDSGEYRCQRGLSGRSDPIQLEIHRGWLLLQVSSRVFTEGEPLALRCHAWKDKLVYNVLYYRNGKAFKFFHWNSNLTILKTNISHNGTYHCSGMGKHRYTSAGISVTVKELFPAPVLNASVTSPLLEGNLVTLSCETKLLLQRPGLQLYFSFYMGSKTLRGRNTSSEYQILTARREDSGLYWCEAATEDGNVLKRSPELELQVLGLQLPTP
FCɣR IIA (CD32a) (human), sequence (P12318 34-217): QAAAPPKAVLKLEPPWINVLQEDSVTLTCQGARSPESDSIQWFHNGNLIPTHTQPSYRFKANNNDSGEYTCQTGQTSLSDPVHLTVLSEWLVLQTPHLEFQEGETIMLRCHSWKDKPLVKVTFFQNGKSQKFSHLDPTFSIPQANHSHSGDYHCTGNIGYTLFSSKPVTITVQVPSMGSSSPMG

The Kd is a measure of binding affinity in units of concentration. The low end stands for a tighter complex, the high end for a looser complex. As to Human IgG1 (+ve control), the values for the Kd in the assay with FCɣR IA (CD64) (human) and with FCɣR IIA (CD32a) (human) were 6.5 nM and 56.9 nM, respectively.

As a reminder, the EC50 is the concentration giving half of the maximal effect. High values mean a less potent agent, low ones a more potent agent. As for Patritumab-DXd, the EC50 in assay [1] was found to be 1.01 nM; in assay [2], 8.23 nM; in assay [3], 2.4 nM; in assay [4], 0.756 nM.
